Experimental data published in patent publication US20080064048A1, “Methods for Selecting Proteins that are Readily Presented as Antigens on Dendritic Cells” (Medical and Biological Laboratories, Co., Ltd., priority 2004, published 2008).

Experiments:
PDI = biological target: T1, PDI (Mus musculus, UniProt P09103); assay: Co-immunoprecipitation of bOVA with anti-PDI; format: binding; details: DC2.4 cells incubated with bOVA
T1 construct: Three types of ER resident proteins; endogenous in cells; host or cells: DC2.4 mouse dendritic cell line
T1 sequence (P09103 20-509): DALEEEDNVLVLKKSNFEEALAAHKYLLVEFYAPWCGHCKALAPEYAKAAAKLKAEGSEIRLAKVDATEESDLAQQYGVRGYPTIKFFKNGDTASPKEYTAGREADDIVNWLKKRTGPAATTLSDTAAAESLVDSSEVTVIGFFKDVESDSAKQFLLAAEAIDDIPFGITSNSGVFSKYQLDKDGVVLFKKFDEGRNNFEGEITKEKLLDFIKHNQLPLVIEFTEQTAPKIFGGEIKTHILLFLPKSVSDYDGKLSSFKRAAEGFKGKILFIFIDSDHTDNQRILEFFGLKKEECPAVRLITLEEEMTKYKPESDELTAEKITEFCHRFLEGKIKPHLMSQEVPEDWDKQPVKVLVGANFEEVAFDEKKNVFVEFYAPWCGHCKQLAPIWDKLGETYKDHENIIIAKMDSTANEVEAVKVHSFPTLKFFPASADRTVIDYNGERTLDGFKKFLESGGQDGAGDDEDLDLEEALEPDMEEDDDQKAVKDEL
Experimental: (§1) 2×10^7 DC2.4 or BMDC cells were cultured for four hours in a medium containing 10 μM MG-132 in the presence of bOVA at 250 μg mL^−1. Cells were lysed in 20 mM HEPES pH7.6 containing 1% digitonin and protease inhibitors to collect biotin-labeled samples. The samples were cleared of impurities in advance using protein G sepharose (Amersham Pharmacia Biotech), and after incubation with antibodies for precipitation (anti-Sec61β, anti Sec61α, anti-VCP, anti-BiP, anti-PDI, anti-calreticulin, anti-TAP1, and anti-TAP2), the immunoprecipitates were collected using protein G. When chicken anti-CHIP antibody was used, immunoprecipitates were collected using a rabbit anti-IgY column (a person, MBL). The precipitated samples were analyzed by SDS-PAGE and Western blotting.

TAP2 = biological target: T2, TAP2 (Mus musculus, UniProt P36371); assay: Co-immunoprecipitation of bOVA with anti-TAP2; format: binding; details: DC2.4 cells incubated with bOVA
T2 construct: endogenous in cells; host or cells: DC2.4 mouse dendritic cell line
T2 sequence (P36371 1-702): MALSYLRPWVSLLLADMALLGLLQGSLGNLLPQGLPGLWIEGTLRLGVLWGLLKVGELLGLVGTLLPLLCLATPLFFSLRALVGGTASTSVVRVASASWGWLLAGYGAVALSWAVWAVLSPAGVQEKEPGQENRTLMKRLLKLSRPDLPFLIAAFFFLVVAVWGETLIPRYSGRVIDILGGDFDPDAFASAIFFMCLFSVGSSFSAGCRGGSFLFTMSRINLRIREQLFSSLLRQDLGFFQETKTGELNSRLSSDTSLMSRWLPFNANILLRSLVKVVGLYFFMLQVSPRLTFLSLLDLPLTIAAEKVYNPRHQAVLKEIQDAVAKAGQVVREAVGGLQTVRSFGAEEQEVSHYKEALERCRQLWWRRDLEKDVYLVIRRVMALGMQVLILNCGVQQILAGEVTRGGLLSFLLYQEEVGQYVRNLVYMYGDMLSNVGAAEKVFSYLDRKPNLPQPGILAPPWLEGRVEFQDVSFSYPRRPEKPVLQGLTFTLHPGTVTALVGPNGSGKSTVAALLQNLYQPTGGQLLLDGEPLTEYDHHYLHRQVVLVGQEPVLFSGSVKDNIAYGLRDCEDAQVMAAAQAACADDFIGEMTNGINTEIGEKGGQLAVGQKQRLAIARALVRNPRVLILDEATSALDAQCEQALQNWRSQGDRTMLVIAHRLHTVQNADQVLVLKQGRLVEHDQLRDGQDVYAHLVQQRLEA
T2 sequence (P21958 1-724 partner): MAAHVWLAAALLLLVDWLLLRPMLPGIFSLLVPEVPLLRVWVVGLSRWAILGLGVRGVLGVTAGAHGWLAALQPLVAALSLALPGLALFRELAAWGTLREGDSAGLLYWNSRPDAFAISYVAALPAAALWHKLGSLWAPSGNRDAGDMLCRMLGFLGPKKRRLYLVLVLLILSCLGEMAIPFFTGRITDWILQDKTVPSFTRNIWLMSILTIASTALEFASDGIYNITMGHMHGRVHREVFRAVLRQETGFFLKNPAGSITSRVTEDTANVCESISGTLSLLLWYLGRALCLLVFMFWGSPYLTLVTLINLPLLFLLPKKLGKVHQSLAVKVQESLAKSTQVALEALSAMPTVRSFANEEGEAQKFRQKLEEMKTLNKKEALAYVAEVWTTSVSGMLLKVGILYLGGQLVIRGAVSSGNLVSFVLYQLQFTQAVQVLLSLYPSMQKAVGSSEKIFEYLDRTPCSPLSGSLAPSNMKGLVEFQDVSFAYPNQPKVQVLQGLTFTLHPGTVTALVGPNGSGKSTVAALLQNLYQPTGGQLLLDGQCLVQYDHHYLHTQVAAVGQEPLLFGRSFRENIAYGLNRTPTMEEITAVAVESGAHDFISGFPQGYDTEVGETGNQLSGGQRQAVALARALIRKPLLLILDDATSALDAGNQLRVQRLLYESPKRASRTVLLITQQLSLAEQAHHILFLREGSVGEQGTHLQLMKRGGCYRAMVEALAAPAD
Experimental: as §1

DC2.4 cells = assay: Uptake of antigen into DC2.4 cells; format: cell-based, mouse; details: CHIP-knocked-down DC2.4 (C4 and C4F-1)
Description: When CHIP-knocked-down DC2.4 cells (C4 and C4F-1) were produced to examine the polyubiquitination of bOVA when CHIP is knocked down, the uptake of bOVA into the CHIP-knocked-down DC2.4 cells was only about 70% that of uptake into the parental DC2.4 cells (FIGS. 4d and 4f). Despite this fact, polyubiquitination of bOVA was reduced to 34% in CHIP-knocked-down cells (FIG. 4f). The decrease in the amount of accumulated OVA was slowed down in CHIP-knocked-down cells (FIGS. 4d and 4e).
Next, DC2.4 cells were incubated for a set amount of time with OVA in the presence or absence of lactacystin (LC), and OVA taken up into the cells was measured. OVA taken up into cells in the presence or absence of Hsp90 was measured similarly.

- interaction with TAP2 (co-immunoprecipitation) (TAP2): does not interact
B1: bOVA: biotin-labeled OVA antigen (protein)
chain: GSIGAASMEFCFDVFKELKVHHANENIFYCPIAIMSALAMVYLGAKDSTRTQINKVVRFDKLPGFGDSIEAQCGTSVNVHSSLRDILNQITKPNDVYSFSLASRLYAEERYPILPEYLQCVKELYRGGLEPINFQTAADQARELINSWVESQTNGIIRNVLQPSSVDSQTAMVLVNAIVFKGLWEKAFKDEDTQAMPFRVTEQESKPVQMMYQIGLFRVASMASEKMKILELPFASGTMSMLVLLPDEVSGLEQLESIINFEKLTEWTSSNVMEERKIKVYLPRMKMEEKYNLTSVLMAMGITDVFSSSANLSGISSAESLKISQAVHAAHAEINEAGREVVGSAEAGVDAASVSEEFRADHPFLFCIKHIATNAVLFFGRCVSP
- interaction with PDI (co-immunoprecipitation) (PDI): interacts
- uptake of bOVA into CHIP-knocked-down cells relative to parental DC2.4 cells (DC2.4 cells): about 70%
